In patent US8084213, “Selection” (Domantis Limited):

Molecular target: scFv(31IJ1)-(KEAAA)6-scArc-HA (Phage P22 / human scFv?)
Test: co-capture on protein A, protein L, fluorescein; with anti-HA 3F10
Conditions: tags: N-terminal scFv fusion, C-terminal HA; chain copies: 2 scArc per operator (inferred)
Description: In the solution expression experiments 3 µl of 1.7 nM PCR-amplified pIE7aA, pIE7a2A, pIE7a3A, pIE7a4A, pIE7aA-scFv(31IJ1), pIE7a2A-scFv(31 Ul), pIE7a3A-scFv (31IJ1) or pIE7a4A-scFv(31IJ1) template in 0.2 mg/ml tRNA is added to 25 µl EcoPro T7 in vitro translation mix (Novagen), supplemented with 0.75 µl of 100 mM oxidized glutathione (Sigma) and 0.25 µl […] 3F10 αHA mAb (Roche). Each reactions is split into three 9 µl aliquots. Two of the three in vitro translation aliquots of pIE7aA-scFv(31IJ1), pIE7a2A-scFv(31IJ1), pIE7a3A-scFv(31IJ1) or pIE-7a4A-scFv(31IJ1) are immediately combined with the aliquots of pIE7aA, pIE7a2A, pIE7a3A or pIE7a4A expression reactions respectively, one before and the other after the four-hour incubation at 25° C.
During the translation reaction the streptavidin-coated PCR tubes, cut from Strep Thermofast 96-well plates (Abgene), are first incubated at room temperature for three hours with 50 µl of at least 40 nM biotinylated protein A (Sigma), protein L (Pierce) fluorescein (Molecular Probes) of BSA (Sigma) in PBS. The coating buffer is thereafter removed and any remaining free biotin-binding sites are blocked with a 15 min pulse of 50 µg/ml biotinylated BSA in PBS. The pre-coated wells are thereafter three times washed with PBS and then filled with 100 µl of binding buffer C+ (100 mM KCl, 20 mM Tris, 5 mM MgCl2, 0.05% Tween 20, 0.05 mM EDTA, 1% BSA). […]

B1: Arc operator, one copy, on linear genetic element (dsDNA)
DNA 1: ATGATAGAAGCACTCTACTAT
DNA 2: ATAGTAGAGTGCTTCTATCAT
B1: binds.
